Experimental data taken from patent US7772181B2, “Personal care compositions comprising modified variant Bowman Birk Protease Inhibitors” (Danisco US Inc., priority 2008, dated 2010).
Positions count from the first letter of the chain named. Numbers in names are those of the source. One block for each molecule: values may come before it.

Columns and labels:
TGFβ = TGFβ (Homo sapiens, UniProt P01137); experiment: BioVeris competition binding assay, TGFβ; settings: Target protein TGFβ1, concentration reducing BioVeris signal by one half, read-out: BioVeris Binding (apparent IC50)
TGFβ, sequence (P01137 279-390): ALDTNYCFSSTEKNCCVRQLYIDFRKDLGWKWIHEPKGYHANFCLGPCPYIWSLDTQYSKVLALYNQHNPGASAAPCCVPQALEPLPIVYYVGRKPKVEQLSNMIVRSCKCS
Experimental: (§1) The resulting vectors were used to transform B. subtilis BG6006 host cells. Cultures were grown in 500 ml of MBD medium and the BBI species were purified essentially as described above and by Vogtentanz et al., 2007 (Protein Expr Purif 55:40-52 [2007]). BioVeris binding assays were performed essentially as outlined in Example 5 and by the manufacturer. Binding of the modified variant BBIs to their respective target proteins was measured using a BioVeris® binding assay, which is a competition assay that determines the binding of the modified variant BBIs to its target protein (e.g. VEGF, FGF5, TGFβ and TNFα) in the presence or absence of a labeled competitor. The competitor can be a labeled monoclonal antibody raised against the target protein or a labeled native receptor of the target protein. The electrochemiluminescent binding assays were performed essentially as described in Example 5. The apparent IC50s were determined from binding data by determining the concentration of the BBI species needed to reduce the BioVeris signal by one half. BBI scaffolds without the target binding peptide in the chymotrypsin inhibitory loop were used as negative controls.

[1] = target: T1, bovine pancreatic chymotrypsin (Bos taurus, UniProt P00766); experiment: Chymotrypsin inhibition assay (BBI activity); type: biochemical; settings: BCE103 fusion protein in cell free broth
T1 construct: purchased Worthington
Experimental: (§2) Trypsin inhibitory assays were performed in Assay Buffer to determine the BBI activity. Specifically, a standard curve was generated by making eleven 1:1 serial dilutions (100 μL BBI+100 μL Assay Buffer) of a 2 μg/mL standard BBI solution. The BBI standard was purified from a 1 mg/ml Trypsin-Chymotrypsin Inhibitor (Sigma Cat. #T-9777) solution in 20 mM MES pH 6.0 using a hydrophobic interaction column (POROS HP2, Phenyl column, Applied Biosystems). The column was equilibrated with 20 mM MES pH 6.0, loaded with 5 mg of the inhibitor, washed with the equilibration buffer, and then the BBI was eluted with water. […] After the incubation, 100 μL of the 0.5 mg/ml trypsin substrate (diluted in Assay Buffer from a 100 mg/ml solution in DMSO), Suc-AAPR-pNA (succinyl-Ala-Ala-Pro-Arg-para-nitroanilide, Bachem), was added, mixed and the OD (A405) was monitored for 15 min, with 1 time point recorded every 12 sec using a Spectra Max 250 (Molecular Devices). […] The BBI concentration of the unknown samples was calculated from the standard curve. Alternatively, the BBI activity was measured using the same protocol but by determining bovine pancreatic chymotrypsin (Worthington) inhibition (chymotrypsin was used at the same concentration as trypsin and chymotrypsin activity was measured by adding 100 μL of a 0.4 mg/ml chymotrypsin substrate, succinyl-Ala-Ala-Pro-Phe-para-nitroanilide, Bachem).

VegF = target: T2, VegF (UniProt P15692); experiment: BioVeris electrochemiluminescence competition binding assay, VEGF; settings: for competition with Anti-VegF antibody for binding to VegF (ECL signal): labeled Anti-VegF antibody, biotinylated VegF
T2 sequence (P15692 207-395): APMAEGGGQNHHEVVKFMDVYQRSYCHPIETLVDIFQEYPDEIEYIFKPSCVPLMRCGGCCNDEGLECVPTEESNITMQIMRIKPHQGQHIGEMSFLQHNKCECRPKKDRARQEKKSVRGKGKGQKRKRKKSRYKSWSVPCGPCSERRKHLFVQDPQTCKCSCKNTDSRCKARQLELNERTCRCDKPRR
Experimental: Briefly, after cleavage, the pH of the cleaved sample was adjusted to 5.5, the sample was then loaded onto the column (equilibrated with 25 mM MES pH 5.5). The free 2BBIck81 was washed through the column using 25 mM sodium acetate pH 5.0 while the BCE103 catalytic core remained bound to the resin. The 2BBIck81 fraction was concentrated by ultrafiltration and analyzed using an electrochemiluminescence (ECL) based binding assay (BioVeris). The Anti-VegF antibody (Santa Cruz) and VegF (PeproTech) were labeled with the electrochemiluminescent dye and biotin, respectively, as described by the manufacturer (BioVeris). All materials were in Dulbecco's PBS (Mediatech) supplemented with 0.1% TWEEN®-80. An initial dilution series of Anti-VegF antibody (125, 250 and 500 ng/ml) and VegF (100, 150, 200 and 250 ng/ml) were tested in the binding assay to determine the concentrations of each that would give a robust ECL signal.
For testing 2BBIck81 binding, 50 μL of 500 ng/ml ECL labeled Anti-VegF antibody, 50 μL of 250 ng/ml biotinylated VegF and 100 μL 2BBIck81 (series of 12.5, 15, 31.25, 62.5, 125, 250 or 500 ng/ml) were incubated at room temperature for 2 h with shaking. Then, 50 μL of 0.2 mg/ml streptavidin coated beads were added and the reaction was incubated at room temperature for 30 minutes. The ECL signal was measured using a BioVeris M8/384 Analyzer as described by the manufacturer (BioVeris).
as §1

[2] = target: T3, bovine pancreatic trypsin (Bos taurus, UniProt P00760); experiment: Trypsin inhibitory assay (BBI activity); type: biochemical
T3 construct: purchased Worthington (Worthington Biochemical Corp.)
T3 sequence (P00760 24-246): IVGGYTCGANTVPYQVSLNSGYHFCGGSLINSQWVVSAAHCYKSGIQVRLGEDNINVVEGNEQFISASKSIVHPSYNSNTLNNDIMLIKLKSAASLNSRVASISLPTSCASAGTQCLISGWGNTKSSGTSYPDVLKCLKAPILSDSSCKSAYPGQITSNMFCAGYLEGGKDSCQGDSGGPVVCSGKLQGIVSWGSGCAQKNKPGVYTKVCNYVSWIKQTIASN
Experimental: as §2, with “water. Unknown BBI samples to be tested in the inhibitory assay were diluted as necessary, so that two or more data points would fall within the standard curve (usually 1:10, 1:100, 1:200, 1:1000, 1:2000 sample dilutions were tested and then the dilutions fine tuned if necessary).” for “water.”
The relative concentration of active control and modified BBIt-AV's was determined by a trypsin inhibitory assay using purified sBBI as a standard as described above. For some samples, the active BBI concentration was measured by residual trypsin activity according to the method described by Flecker (Flecker, P. FEBS Lett. 252:153-157 [1989]; Vogtentanz et al. supra). […]

human CD4+ T cells = experiment: i-mune assay for peptide T-cell epitopes; type: cell-based
Experimental: The i-mune® assay was performed for the identification of peptide T-cell epitopes in wild type BBI using naïve human T-cells, as described in WO9953038A2 and Stickler et al, 2000 (J. Immunotherapy, 23(6), 654-660, [2000]). Peptides for use in the assay were prepared based on the wild-type BBI amino acid sequence […] CYEPCKPSEDDKEN (SEQ ID NO:13). From the full length amino acid sequence of BBI, 15mer peptides were synthetically prepared by Mimotopes US West (San Diego, Calif.). Each 15mer peptide sequence was designed to overlap with the previous and subsequent 15mer, except for three residues. The 20 peptides used to screen for T-cell epitopes, corresponding to wild type BBI sequence, were:
Briefly, human CD4+ T cells were co-cultured with dendritic cells and peptide for the intact peptide set, using the peptides shown in Figure Y. Cytokine responses were averaged within each experiment as described in Strickler et al, 2000 and a response to a peptide was tabulated as positive if the stimulation index (SI) was greater than 2.95 (FIG. 18A). SI values for each donor were compiled for each peptide set and the percent of donors responsive to each peptide is shown in FIG. 18B. The percent background response, 2.89%, was determined as the average percent responders over all the peptides in the set. The standard deviation for this dataset was 2.21%. Major epitopes are defined as having a percentage response that is 3-fold or more than the background.

[3] = target: T3, bovine pancreatic trypsin; experiment: Shake flask screen: trypsin inhibition after growth, 2-mercaptoethanol activation and acid/heat treatment; type: biochemical; settings: when not activated

B2: 1 BBIck81: BBI with the CK37281 peptide in the trypsin loop (protein)
chain: DDESSKPCCDQCACYNLYGWTCRCSDMRLNSCHSACKSCICALSYPAQCFCVDITDFCYEPCKPSEDDKEN
- activity of the BBI (chymotrypsin inhibition) relative to fusions to the wild-type BBI [1]: about two fold less
- competition with Anti-VegF antibody for binding to VegF (ECL signal) (VegF): also competed with the Anti-VegF antibody

B3: BBI-AV: BBI with VEGF binding peptide CK37281 replacing the chymotrypsin inhibitory loop, SEQ ID NO:186 (protein)
chain: DDESSKPCCDQCACTKSNPPQCRCSDMRLNSCHSACKSCACYNLYGWTCFCVDITDFCYEPCKPSEDDKEN
modifications: synthetic BBI-AV sequence
- activity of the BBI (trypsin inhibition) relative to fusions to the wild-type BBI ([2]; BCE103 fusion protein in cell free broth): about two fold less
- competition for VegF binding compared with synthesized CK37281 peptide (VegF): better than the synthesized CK37281 peptide itself
- competition with Anti-VegF antibody for binding to VegF (ECL signal) (VegF): shown to compete
- competition with Anti-VegF antibody for binding to VegF (ECL signal) (VegF; listed as 2BBIck81): competed with the Anti-VegF antibody for binding to VegF at micromolar concentrations

B5: D1C: BBIt-AV (SEQ ID NO:187) with single substitution D1C (protein)
chain: CDESSKPCCDQCACTKSNPPQCRCSDMRLNSCHSACKSCACYNLYGWTCFCVDITDFCYEPCKPSE
modifications: synthetic BBIt-AV sequence
- BBIt-AV yield after acid/heat treatment relative to unmodified BBIt-AV [3]: improved yields after acid/heat treatment

Further lines, with some results ahead:

- IC50 (TGFβ): 10 to 50 µM
B1: PEN3-Q-BBIt-TGF-A40L-F50N (SEQ ID NO: 677) (protein)
chain: PSESSKPCCDQCACTKSIPPQCRCTDVRLNSCHSACSSCACYNLYGWTCVCVDMKDFCYEPCK
modifications: synthetic BBdb-AV sequence

- activated trypsin inhibitory activity, % of expected based on BCE103 cellulase concentration ([2]; 2 mM BME and 0.2 mM GSSG, about 24 h, room temperature): 70-100%
- activity of the BBI after growth versus expected from BCE103 cellulase activity ([2]; cell free supernatants, trypsin or chymotrypsin inhibition, before activation): 5-20 times lower
B4: BBI: soybean Bowman-Birk protease inhibitor from Glycine max, major mature form, SEQ ID NO:13 (protein)
chain: B3 chain with A40I, Y42A, N43L, L44S, G46P, W47A, T48Q
modifications: Glycine max
- immunogenicity potential in humans (human CD4+ T cells): low immunogenicity potential
- percent background response (average percent responders over all the peptides) (human CD4+ T cells; 20 overlapping 15mer peptides, 71 donors): 2.89%
- peptide T-cell epitope responses (human CD4+ T cells; stimulation index > 2.95 positive, major epitope 3-fold or more over background): none of the peptide responses were significant
